# Laboratory results: paper PMC5738438 (2017)
# B1: Npm tail peptide (residues 122–131) (peptide)
# chain: DYSWAEEEDE
# B2: Npm tail domain (residues 119–195) (domain or fragment)
# chain: MEEDYSWAEEEDEGEEEEEEEEDPESPPKAVKRPAATKKAGQAKKKKLDKEDESSEEDSPTKKGKGAGRGRKPAAKK
# What was measured:
# H2A/H2B dimer = H2A/H2B dimer (Xenopus, UniProt P06897 2-123; P02281 1-126)
# H3/H4 = H3/H4 (Xenopus, UniProt P84233 21-136; P62799 17-103)
Binder,Kd (H2A/H2B dimer) [nM],Kd (H3/H4) [nM]
B1,9360,–
B2,171,1110
